Assay results published in patent US8877192B2, “Rage fusion proteins and methods of use” (TransTech Pharma, LLC, priority 2004, dated 2014).

What was measured:
amyloid-beta (A-beta) = test: Competition of a RAGE ligand with immobilized amyloid-beta for binding to the fusion protein; details: TTP-4000 initial solution diluted 1:10 or 1:30; RAGE ligand FAC 10 μM
Procedure: The fusion protein of the present invention may also be used to identify compounds having the ability to bind to RAGE.
Known RAGE ligands were coated onto the surface of Maxisorb plates at a concentration of 5 micrograms per well. Plates were incubated at 4° C. overnight. Following ligand incubation, plates were aspirated and a blocking buffer of 1% BSA in 50 mM imidizole buffer (pH 7.2) was added to the plates for 1 hour at room temperature. The plates were then aspirated and/or washed with wash buffer (20 mM Imidizole, 150 mM NaCl, 0.05% Tween-20, 5 mM CaCl2 and 5 mM MgCl2, pH 7.2). […] The fusion protein was added at increasing dilutions of the initial sample. The RAGE fusion protein was allowed to incubate with the immobilized ligand at 37° C. for one hour after which the plate was washed and assayed for binding of the fusion protein. Binding was detected by the addition of an immunodetection complex containing a monoclonal mouse anti-human IgG1 diluted 1:11,000 to a final assay concentration (FAC) of 21 ng/100 μL, a biotinylated goat anti-mouse IgG diluted 1:500, to a FAC of […], and an avidin-linked alkaline phosphatase. […] Binding of the complex to the immobilized fusion protein was quantified by measuring conversion of PNPP to para-nitrophenol (PNP) which was measured spectrophotometrically at 405 nm. […]

[1] = system: S100b/RAGE-induced production of TNF-α in THP-1 cells; test: S100b/RAGE-induced production of TNF-α in THP-1 cells; type: cell-based; details: FIG. 10
Procedure: THP-1 myeloid cells may be cultured in RPMI-1640 media supplemented with 10% FBS and induced to secrete TNF-α via stimulation of RAGE with S100b. When such stimulation occurs in the presence of a RAGE fusion protein, induction of TNF-α by S100b binding to RAGE may be inhibited.
Previous work has shown that the myeloid THP-1 cells may secrete TNF-α in response to RAGE ligands. In this assay, THP-1 cells were cultured in RPMI-1640 media supplemented with 10% FBS using a protocol provided by ATCC. […] The amount of TNF-α secreted by the THP-1 cells was measured 24 hours after the addition of the proteins to the cell culture using a commercially available ELISA kit for TNF-α (R&D Systems, Minneapolis, Minn.).

[2] = system: transgenic mice expressing the human Swedish mutant amyloid precursor protein (APP); test: Mouse model of AD (APP transgenic mice); type: in vivo
Procedure: Experiments were performed to evaluate whether TTP-4000 could affect amyloid formation and cognitive dysfunction in a mouse model of AD. The experiments utilized transgenic mice expressing the human Swedish mutant amyloid precursor protein (APP) under the control of the PDGF-B chain promoter. Over time, these mice generate high levels of the RAGE ligand, amyloid beta (Aβ).
The APP mice (male) used in this experiment were designed by microinjection of the human APP gene (with the Swedish and London mutations) into mouse eggs under the control of the platelet-derived growth factor B (PDGF-B) chain gene promoter. The mice were generated on a C57BL/6 background and were developed by Molecular Therapeutics Inc. Animals were fed ad libitum and maintained by brother sister mating. The mice generated from this construct develop amyloid deposits starting at 6 months of age. Animals were aged for 6 months and then maintained for 90 days and sacrificed for amyloid quantification.
APP transgenic mice were administered vehicle or TTP4000 every other day [qod (i.p.)] for 90 days starting at 6 months of age. At the end of the experiment, animals were sacrificed and examined for Aβ plaque burden in the brain (i.e., plaque number). A 6-month control APP group was used to determine the baseline of amyloid deposits. In addition, at the end of the study, the animals were subjected to behavioral (Morris water maze) analysis. The investigators were blinded to the study compounds. Samples were given to the mice at 0.25 ml/mouse/every other day.
For histological examination, the animals were anesthetized with an intraperitoneal injection (IP) of sodium pentobarbital (50 mg/kg). The animals were transcardially perfused with 4° C., phosphate-buffered saline (PBS) followed by 4% paraformaldehyde. The brains were removed and placed in 4% paraformaldehyde over night. The brains were processed to paraffin and embedded. Ten serial 30-μm thick sections through the brain were obtained. Sections were subjected to primary antibody overnight at 4° C. (Aβ peptide antibody) in order to detect the amyloid deposits in the brain of the transgenic animals (Guo et al., J. Neurosci., 22:5900-5909 (2002)). Sections were washed in Tris-buffered saline (TBS) and secondary antibody was added and incubated for 1 hour at room temperature. After washing, the sections were incubated as instructed in the Vector ABC Elite kit (Vector Laboratories) and stained with […] (DAB). The reactions were stopped in water and cover-slipped after treatment with xylene. The amyloid area in each section was determined with a computer-assisted image analysis system, consisting of a Power Macintosh computer equipped with a Quick Capture frame grabber card, Hitachi CCD camera mounted on an Olympus microscope and camera stand. NIH Image Analysis Software, v. 1.55 was used. The images were captured and the total area of amyloid was determined over the ten sections. A single operator blinded to treatment status performed all measurements. Summing the amyloid volumes of the sections and dividing by the total number of sections was done to calculate the amyloid volume.
For quantitative analysis, an enzyme-linked immunosorbent assay (ELISA) was used to measure the levels of human total Aβ, Aβtotal and Aβ1-42 in the brains of APP transgenic mice (Biosource International, Camarillo, Calif.). Aβtotal and Aβ1-42 were extracted from mouse brains by guanidine hydrochloride and quantified as described by the manufacturer. […]

B1: TTP-4000: four domain RAGE fusion protein (SEQ ID NO: 32): human RAGE amino acids 1-251 linked to CH2 and CH3 domains of human IgG (protein)
chain: MAAGTAVGAWALVLSLWGAVVGAQNITARIGEPLVLKCKGAPKKPPQRLEWKLNTGRTEAWKVLSPQGGGPWDSVARVLPNGSLFLPAVGIQDEGIFRCQAMNRNGKETKSNYRVRVYQIPGKPEIVDSASELTAGVPNKVGTCVSEGSYPAGTLSWHLDGKPLVPNEKGVSVKEQTRRHPETGLFTLQSELMVTPARGGDPRPTFSCSFSPGLPRHRALRTAPIQPRVWEPVPLEEVQLVVEPEGGAVAPPSVFLFPPKPKDTLMISRTPEVTCVVVDVSHEDPEVKFNWYVDGVEVHNAKTKPREEQYNSTYRVVSVLTVLHQDWLNGKEYKCKVSNKALPAPIEKTISKAKGQPREPQVYTLPPSRDELTKNQVSLTCLVKGFYPSDIAVEWESNGQPENNYKTTPPVLDSDGSFFLYSKLTVDKSRWQQGNVFSCSVMHEALHNHYTQKSLSLSPGK
block of binding of fusion protein to immobilized amyloid-beta by the RAGE ligand (amyloid-beta (A-beta)): completely inhibited
reduction of induction of TNF-α by S100b ([1]; 10 μg protein, S100b 0.1 mg/ml FAC, 24 hours): ~70%
blocking S100b induction of TNF-α compared with sRAGE ([1]; 10 μg): at least as effective in blocking S100b induction of TNF-α as is sRAGE
inflammatory cytokines IL-1 and TNF-α ([2]; data not shown): reduce
Aβ plaques in the brain ([2]; treated for 3 months, versus vehicle and human IgG1, FIG. 14A): fewer Aβ plaques
cognitive dysfunction (Morris water maze) ([2]; treated for 3 months, versus vehicle and human IgG1, FIG. 14B): less cognitive dysfunction
